Test results taken from patent publication US20210317220A1 (Janssen / Centocor, published 2021).

Tests used:
[1] = target: T1, soluble human CD154 (human, UniProt P29965 113-261); assay: ELISA of free and total sCD154 in platelet poor plasma of dosed human participants
T1 construct: also called sCD154; shCD154
T1 sequence: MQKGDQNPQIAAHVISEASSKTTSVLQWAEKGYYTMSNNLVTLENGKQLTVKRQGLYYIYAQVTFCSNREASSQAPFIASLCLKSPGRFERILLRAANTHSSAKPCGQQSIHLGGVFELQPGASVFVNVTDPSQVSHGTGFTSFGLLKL
Description: Mean free and total soluble CD154 (sCD154) concentrations were determined by ELISA in platelet poor plasma samples obtained from the participants administered C4LB231 according to the study described in Example 2. Free sCD154 concentration remained undetectable until 14 days after dosing indicating suppression of the target of […].

[2] = target: T2, rhesus monkey soluble CD154 (rhesus monkey, UniProt P63304 113-261, limits assumed); assay: free and total sCD154 in platelet poor plasma of rhesus monkeys dosed IV or SC (3-month study)
T2 construct: Endogenous plasma protein measured in dosed animals; also called sCD154; free sCD154
T2 sequence (looked up): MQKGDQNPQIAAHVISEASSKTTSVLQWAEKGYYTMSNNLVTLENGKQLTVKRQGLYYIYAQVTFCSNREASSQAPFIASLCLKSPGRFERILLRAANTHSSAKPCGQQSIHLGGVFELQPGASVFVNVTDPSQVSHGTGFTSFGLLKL
Description: Rhesus monkeys were administered the anti-CD154 antibody C4LB231 intravenously (IV) or subcutaneously (SC) once weekly for 13 weeks. The control vehicle was 0.9% sterile saline (NaCl). Animals were dosed by IV or SC injection as described above for the 8-week study on days 1, 8, 15, 22, 29, 36, 43, 50, 57, 64, 71, 78, and 85 for a total of 13 doses. On days 29, 57, and 155 (recovery study animals only) animals received an intramuscular injection of a 1 mg dose of KLH antigen to the left thigh for a KLH-antigen challenge study. Blood samples were collected from the animals and evaluated as described below.
Free and total soluble CD154 (sCD154) were assessed in platelet poor plasma samples. […] The extent of reduction was greater at the higher dose levels. A dose-dependent decrease in free sCD154 coupled with dose-dependent increase in total sCD154 indicated good target engagement in plasma.

binding result [1]: binds
binding result [2]: binds
B1: anti-CD154 antibody C4LB231 (antibody, human IgG1, kappa, V domains shown)
VH: QVQLVQSGAEVKKPGSSVKVSCKASGGTFSSYGISWVRQAPGQGLEWMGWISPIFGNTNYAQKFQGRVTITADESTSTAYMELSSLRSEDTAVYYCARSRYYGDLDYWGQGTLVTVSS
VL: DIQMTQSPSSLSASVGDRVTITCRASQSISSYLNWYQQKPGKAPKLLIYYANSLQSGVPSRFSGSGSGTDFTLTISSLQPEDFATYYCQQSDSIPWTFGQGTKVEIKR
notes: Human IgG1σ mAb (Fc-silencing mutations L234A, L235A, G237A, P238S, H268A, A330S, P331S); also called C4BL231; C4BL231 (Fc silent)
